In patent US20180155451A1 (published 2018):

T1: FcγRIIb extracellular domain with C-terminal His tag (human, UniProt P31994 43-217)
T1 construct: extracellular domain; also called FcgRIIb; 2b; not shown: His tag at the C terminus
T1 sequence (looked up): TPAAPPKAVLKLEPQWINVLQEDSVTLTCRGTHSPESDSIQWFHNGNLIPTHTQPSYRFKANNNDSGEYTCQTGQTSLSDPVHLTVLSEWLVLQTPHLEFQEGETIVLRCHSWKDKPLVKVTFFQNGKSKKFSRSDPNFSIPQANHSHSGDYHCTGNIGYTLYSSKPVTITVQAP


Columns and labels:
[1] = molecular target: T1, FcγRIIb extracellular domain with …; test: SPR (Biacore), captured antibody, FcγR as analyte; relative to GpH7-A5/GpH7-B3/GpL16-k0 = 100
Method: (§1) Analysis of interaction between objective antibody and the FcγR was carried out using Biacore T100 (GE Healthcare). HBS-EP+ (GE Healthcare) was used as the running buffer, and the measurement temperature was set to 25° C. Chips produced by immobilizing the antigen peptide by the amine coupling method to a Series S Sencor Chip CM5 (GE Healthcare), or alternatively, chips produced by allowing preliminarily biotinylated antigen peptides to interact with and immobilize onto a Series S Sensor Chip SA (certified) (GE Healthcare) were used. Antibodies of interest were captured onto an antigen peptide-immobilized chip, and allowed to interact to each FcγR diluted with running buffer. To regenerate and repeatedly use the chip, the antibodies captured on the chip were washed off by reacting 10 mM glycine-HCl, pH 1.5.
(§2) The FcγR-binding activity of each antibody was assessed primarily using as an indicator the FcγR-binding activity and dissociation constant for FcγR.

[2] = molecular target: T2, FcγRIIIa extracellular domain with C-terminal His tag (human, UniProt P08637 17-208); test: as above
T2 construct: extracellular domain; also called FcgRIIIa; 3a; not shown: His tag at the C terminus
T2 sequence (P08637 17-208): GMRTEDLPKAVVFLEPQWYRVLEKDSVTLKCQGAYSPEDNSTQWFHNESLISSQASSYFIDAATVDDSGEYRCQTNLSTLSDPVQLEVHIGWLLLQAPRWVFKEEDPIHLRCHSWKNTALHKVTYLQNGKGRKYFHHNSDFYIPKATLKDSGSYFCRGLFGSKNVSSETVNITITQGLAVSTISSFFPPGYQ
Method: as §1, §2

[3] = molecular target: T3, FcγRIa extracellular domain with C-terminal His tag (human, UniProt P12314 16-292); test: SPR (Biacore), captured antibody, FcγRIa analyte; relative to GpH7-B3/GpL16-k0 = 100
T3 construct: extracellular domain; Expressed in FreeStyle293 cells; used as analyte in Biacore; also called FcgRI; 1a; not shown: His tag at the C terminus
T3 sequence (P12314 16-292): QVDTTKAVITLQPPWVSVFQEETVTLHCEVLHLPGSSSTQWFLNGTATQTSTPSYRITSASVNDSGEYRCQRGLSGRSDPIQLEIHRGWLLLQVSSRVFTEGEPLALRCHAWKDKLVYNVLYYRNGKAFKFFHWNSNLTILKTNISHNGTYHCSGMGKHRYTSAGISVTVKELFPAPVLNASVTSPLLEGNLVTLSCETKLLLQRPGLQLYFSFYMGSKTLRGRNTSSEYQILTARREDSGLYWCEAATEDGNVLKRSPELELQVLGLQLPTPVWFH

Binder	He/Con_2b (IIb binding) [1]	He/Con_3a (IIIa binding) [2]	Ho/Con_1a [3]
GpH7-A5/GpH7-B3 variant S239_05P/GpL16-k0 (heterodimerized antibody, He Ab) (antibody, human IgG1, kappa, Anti-glypican-3 IgG1; the alteration is in the GpH7-B3 chain only; also called S239P) heavy 1: not shown heavy 2: not shown light: DIVMTQSPLSLPVTPGEPASISCQASESLVHSNRNTYLHWYLQKPGQSPQLLIYKVSNRFSGVPDRFSGSGSGTDFTLKISRVEAEDVGVYYCSQNTHVPPTFGQGTKVEIERTVAAPSVFIFPPSDEQLKSGTASVVCLLNNFYPREAKVQWKVDNALQSGNSQESVTEQDSKDSTYSLSSTLTLSKADYEKHKVYACEVTHQGLSSPVTKSFNRGEC	102 % of HeCon Ab	14.9 % of HeCon Ab	–
GpH7-B3 variant (T335_04F)/GpL16-k0 (antibody, human IgG1, kappa, Homodimerized; both H chains altered; also called Ho Ab T335_04F) heavy: not shown light: DIVMTQSPLSLPVTPGEPASISCQASESLVHSNRNTYLHWYLQKPGQSPQLLIYKVSNRFSGVPDRFSGSGSGTDFTLKISRVEAEDVGVYYCSQNTHVPPTFGQGTKVEIERTVAAPSVFIFPPSDEQLKSGTASVVCLLNNFYPREAKVQWKVDNALQSGNSQESVTEQDSKDSTYSLSSTLTLSKADYEKHKVYACEVTHQGLSSPVTKSFNRGEC	–	–	105 % of control
GpH7-A5/GpH7-B3 variant S239_06M/GpL16-k0 (heterodimerized antibody, He Ab) (antibody, human IgG1, kappa, Anti-glypican-3 IgG1; the alteration is in the GpH7-B3 chain only; also called S239M) heavy 1: not shown heavy 2: not shown light: DIVMTQSPLSLPVTPGEPASISCQASESLVHSNRNTYLHWYLQKPGQSPQLLIYKVSNRFSGVPDRFSGSGSGTDFTLKISRVEAEDVGVYYCSQNTHVPPTFGQGTKVEIERTVAAPSVFIFPPSDEQLKSGTASVVCLLNNFYPREAKVQWKVDNALQSGNSQESVTEQDSKDSTYSLSSTLTLSKADYEKHKVYACEVTHQGLSSPVTKSFNRGEC	101 % of HeCon Ab	78.2 % of HeCon Ab	–
GpH7-A5/GpH7-B3 variant S239_07I/GpL16-k0 (heterodimerized antibody, He Ab) (antibody, human IgG1, kappa, Anti-glypican-3 IgG1; the alteration is in the GpH7-B3 chain only; also called S239I) heavy 1: not shown heavy 2: not shown light: DIVMTQSPLSLPVTPGEPASISCQASESLVHSNRNTYLHWYLQKPGQSPQLLIYKVSNRFSGVPDRFSGSGSGTDFTLKISRVEAEDVGVYYCSQNTHVPPTFGQGTKVEIERTVAAPSVFIFPPSDEQLKSGTASVVCLLNNFYPREAKVQWKVDNALQSGNSQESVTEQDSKDSTYSLSSTLTLSKADYEKHKVYACEVTHQGLSSPVTKSFNRGEC	107 % of HeCon Ab	79.3 % of HeCon Ab	–
GpH7-A5/GpH7-B3 variant V266_06M/GpL16-k0 (heterodimerized antibody, He Ab) (antibody, human IgG1, kappa, Anti-glypican-3 IgG1; the alteration is in the GpH7-B3 chain only; also called V266M) heavy 1: not shown heavy 2: not shown light: DIVMTQSPLSLPVTPGEPASISCQASESLVHSNRNTYLHWYLQKPGQSPQLLIYKVSNRFSGVPDRFSGSGSGTDFTLKISRVEAEDVGVYYCSQNTHVPPTFGQGTKVEIERTVAAPSVFIFPPSDEQLKSGTASVVCLLNNFYPREAKVQWKVDNALQSGNSQESVTEQDSKDSTYSLSSTLTLSKADYEKHKVYACEVTHQGLSSPVTKSFNRGEC	251 % of HeCon Ab	85.8 % of HeCon Ab	–
GpH7-A5/GpH7-B3 variant S267_10E/GpL16-k0 (heterodimerized antibody, He Ab) (antibody, human IgG1, kappa, Anti-glypican-3 IgG1; the alteration is in the GpH7-B3 chain only; also called S267E) heavy 1: not shown heavy 2: not shown light: DIVMTQSPLSLPVTPGEPASISCQASESLVHSNRNTYLHWYLQKPGQSPQLLIYKVSNRFSGVPDRFSGSGSGTDFTLKISRVEAEDVGVYYCSQNTHVPPTFGQGTKVEIERTVAAPSVFIFPPSDEQLKSGTASVVCLLNNFYPREAKVQWKVDNALQSGNSQESVTEQDSKDSTYSLSSTLTLSKADYEKHKVYACEVTHQGLSSPVTKSFNRGEC	379 % of HeCon Ab	91.9 % of HeCon Ab	–

The next lines start with the values.

He/Con_2b (IIb binding) [1]	He/Con_3a (IIIa binding) [2]	Ho/Con_1a [3]	Binder
–	–	108 % of control	GpH7-B3 variant (A330_10E)/GpL16-k0 (antibody, human IgG1, kappa, Homodimerized; both H chains altered; also called Ho Ab A330_10E) heavy: not shown light: DIVMTQSPLSLPVTPGEPASISCQASESLVHSNRNTYLHWYLQKPGQSPQLLIYKVSNRFSGVPDRFSGSGSGTDFTLKISRVEAEDVGVYYCSQNTHVPPTFGQGTKVEIERTVAAPSVFIFPPSDEQLKSGTASVVCLLNNFYPREAKVQWKVDNALQSGNSQESVTEQDSKDSTYSLSSTLTLSKADYEKHKVYACEVTHQGLSSPVTKSFNRGEC
–	–	103 % of control	GpH7-B3 variant (D265_10E)/GpL16-k0 (antibody, human IgG1, kappa, Homodimerized; both H chains altered; also called Ho Ab D265_10E) heavy: not shown light: DIVMTQSPLSLPVTPGEPASISCQASESLVHSNRNTYLHWYLQKPGQSPQLLIYKVSNRFSGVPDRFSGSGSGTDFTLKISRVEAEDVGVYYCSQNTHVPPTFGQGTKVEIERTVAAPSVFIFPPSDEQLKSGTASVVCLLNNFYPREAKVQWKVDNALQSGNSQESVTEQDSKDSTYSLSSTLTLSKADYEKHKVYACEVTHQGLSSPVTKSFNRGEC
–	–	106 % of control	GpH7-B3 variant (A330_19Q)/GpL16-k0 (antibody, human IgG1, kappa, Homodimerized; both H chains altered; also called Ho Ab A330_19Q) heavy: not shown light: DIVMTQSPLSLPVTPGEPASISCQASESLVHSNRNTYLHWYLQKPGQSPQLLIYKVSNRFSGVPDRFSGSGSGTDFTLKISRVEAEDVGVYYCSQNTHVPPTFGQGTKVEIERTVAAPSVFIFPPSDEQLKSGTASVVCLLNNFYPREAKVQWKVDNALQSGNSQESVTEQDSKDSTYSLSSTLTLSKADYEKHKVYACEVTHQGLSSPVTKSFNRGEC
